The target in the assay is SARS-CoV-2 receptor-binding domain (RBD), prototype (Wuhan-Hu-1), Avi-tagged and biotinylated (SARS-CoV-2). Briefly: BLI.

B1: Ab08 single-chain fragment variable (scFv) (scFv, V domains shown)
VH: QVQLVQSGAEVKKPGSSVKVSCKASGGTFSSYTISWVRQAPGQGLEWMGGIIPILGTTNYAQKFQGRVTITADESTSTAYMELSSLRSEDTAVYYCARKFGYSGYGATWYFDLWGRGTLVTVSS
VL: QSVLTQPPSVSGAPGQRVTISCTGNSSNIGAGYDVHWYQQFPGTAPKLLIYGNSNRPSGVPDRFSGSKSGTSASLAITGLQAEDEADYYCQSYDSSLSGSVFGGGTKLTVL
B1: the off-rate (koff) came out at 7.5e-05 s⁻¹.

For the origin of these results see publication PMC9907810 (2023).
